T1: MerR (Tn501) (Pseudomonas aeruginosa (Tn501), UniProt P0A183 1-144)
T1 sequence: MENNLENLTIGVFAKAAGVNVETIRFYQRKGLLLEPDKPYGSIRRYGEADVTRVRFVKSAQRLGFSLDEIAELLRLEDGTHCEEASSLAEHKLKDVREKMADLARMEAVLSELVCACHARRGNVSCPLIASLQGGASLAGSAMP

B1: Pmer-M11 (dsDNA)
DNA 1: TTGACTCCGTACATGAGTACGGAATAAGGT
DNA 2: ACCTTATTCCGTACTCATGTACGGAGTCAA
B2: Pmer-M10 (dsDNA)
DNA 1: TTGACTCCGTACATGAGTACGGAGTAAGGT
DNA 2: ACCTTACTCCGTACTCATGTACGGAGTCAA
B3: Pmer-M12 (dsDNA)
DNA 1: TTGACTCCGTACATGAGTACGGGTAAGGT
DNA 2: ACCTTACCCGTACTCATGTACGGAGTCAA
B4: Pmer-M14 (dsDNA)
DNA 1: TTGACTCCGTACATGAGTACGGTAAGGT
DNA 2: ACCTTACCGTACTCATGTACGGAGTCAA
B5: Pmer-M7 (dsDNA)
DNA 1: TTGACTCCGTACATGAGACGGAAGTAAGGT
DNA 2: ACCTTACTTCCGTCTCATGTACGGAGTCAA
B6: Pmer-M1 (dsDNA)
DNA 1: TTGACTCGTACATGAGTACGGAAGTAAGGT
DNA 2: ACCTTACTTCCGTACTCATGTACGAGTCAA
B7: Pmer-M4 (dsDNA)
DNA 1: TTGACTCCGTACTGAGTACGGAAGTAAGGT
DNA 2: ACCTTACTTCCGTACTCAGTACGGAGTCAA

In the series the target is T1, MerR (Tn501). The experiment in a line: EMSA; 0-600 nM MerR, 30 nM DNA, no Hg stated; 10 mM Tris-HCl pH 8.0, 50 mM KCl, 5 mM MgCl2, 10% glycerol, 25 C 10 min; 8% native PAGE, 80 V 45 min. The following applies: protein: recombinant; chain copies: 2; blunt.
As to B1, the binding result was “binds”.

Regarding B2, the binding result is “binds”. As to B3, the binding result is given as “binds”. With B4 the entry was “binds”; with B5, “no binding”. As for B6, the binding result is given as “binds”.

B7: the binding result was “no binding”.

These data come from PMC11049809, “Determinants of mer Promoter Activity from Pseudomonas aeruginosa”.
